Assay: label from the status in PepcDB records

Row | Sequence | protein production
1 | MNILLAGGSGLIGQELVRGMGEEHHYTVLGRDKDAIQKIFTTKASSLSWDELNTQDASRFDAVINLCGVNIAISRWTPKIKEEIISSRVQTTENLLHWILQQNAKPRFYCANAVGIYGLQENGDATDLTEDTAINWEHPKDYLSEVGIRWQQALQKAEEAGLPVTSTRFGVVLKKGKGFLGKLYPSFICGLGSTIGDGRQYLSWIDSEDLVNAYRFLLNHPEITGPVNVTSPNPCMQREFAKAFAKSLHRPLLLWTPAFIIHLLFGEMGDCLINHGQKVKPKRLLEAGFEFKWPDIEKALKHQYSAILEHHHHHH | not failed
2 | MADVEIMQTVQTEVKKTTKKVKKSSKRRESEVQISEVEVDATIEERGGEYTKAMDKDWHSGHFCCWQCDESLTGQRYVIRDDHPYCIKCYENVFANTCEECNKIIGIDSKDLSYKDKHWHEACFLCFKCHLSLVDKQFGAKADKIYCGNCYDAQFASRCDGCGEVFRAGTKKMEYKTRQWHENCFCCCVCKTAIGTKSFIPREQEIYCAGCYEEKFATRCIKCNKVITSGGVTYKNEPWHRECFTCTHCNITLAGQRFTSRDEKPYCAECFGELFAKRCTACVKPITGIGGTRFISFEDRHWHHDCFVCASCKASLVGRGFITDGPDILCPDCAKQKLM | failed
3 | MERSAIQIPAGRIDDAVAKVDGLVGELMQNTGIPGMAVAIVHGGKTLYAKGFGVRDVGKGGGPDNKVDADTVFQLASVSKSVGATVVAHAVTDNVVTWDTPVVSKLPWFALRDPYVTGQVTIADLYSHRSGLPDHAGDLLEDLGYDRRQVLQRLKYLPLAPFRISYAYTNFGVTAAAEAVAAAAGQSWEDLSDEVLYRPLGMGSTSSRFTDFLARPNHAVNHVKVADRWEARYQRDPDAQSPAGGVSSSLNDMTHWLAMVLADGVYNGRRITSPEALLLVYTPQVISRHPVSPRARASFYGYGFNVGVTSSGRTEYSHSGAFGLGAAANFVVLPSEDLAIIALTNAGPIGVPETLTAEFMDLVQYGQVREDWAALYKKAFAPLNELAGSLVGKQSPANPAPSRPLNDYVGVYANDYWGPATVTYHDGQLRLSLGPKNQTFDLTHWDGDTFTFTLSTENALPGSISKATFAGDTLNLEYYDADKLGTFTRLEHHHHHH | failed
4 | MPMYQETSEPSLQALESRQDDILKRLYELKAAVDGLSKMIHTPDADLDVTNILQADEPTTLATNTLDLNSVLGKDYGALKDIVINANPASPPLSLLVLHRLLCERYRVLSTVHTHSSVKNVPENLVKCFGEQARKQSRHEYQLGFTLIWKNVPKTQMKFSVQTMCPIEGEGNIARFLFSLFGQKHNAVTLTLIDSWVDIAMFQLREGSSKEKAAVFRSMNSALGRSPWLVGNELTVADVVLWSVLQQTGGSSGAAPTNVQRWLKSCENLAPFSTALQLLK | failed
5 | MERLISHPPLMIVSDLDHTMVDHQDHENLSLLRFNSLWEYAYRRDSLLVFSTARSPVLYKELRKEKPLLTPDIIITSIGTEIAFGNSMVPDHAWVESLNSCKWNREIVLEETSKFPELTLQPKTEQRLHKVSFYIDEGKGEALTKELSQLLEKRGLDVKIIYSWGKNVDVIPRGAGKGEALEYLLKKLQAEGIFPVNTLACGDSEHDAELFSIPDVHGVMVSNSQEELLKWRSENALNNLKVIHSTERCADGIIQAIGHFNLGPDLSPRDVSEFLDRKMDNVNPGHEVVRFYLFYERLRRGEIKNYETYIASFKDSCAEKSLRDTIDELKKCYGDKRGKKFWVWVDQVLVTDTIPGKWIVKFDKWEQCEDESQCCKTTVEFTSKGGDLVWEKVKQIWSEESKVKDDNSSWIL | not failed
6 | MVCVDFIDQKVYSEAEGLFVSDLDLGIKGLIRARYPFALDSDFISYGNLSHYCMNYLDEIVQRANQKNEKIKYNVTTLMKEEEKPFNVEERLNKQATIGQRIADDVARFGGSWTFIIVFVSIMAIWMLVNIMKPFGIQFDPYPFILLNLALSTIAAIQAPLIMMSQNRAADYDRLQARNDFNVNKTSELEIRLLHEKIDHMVQQDQFELLEIQKLQTEMLVSLGNQLAQLKQLQK | failed
7 | MKLKSYILVGYIISTLLTILVVFWAVQKMLIAKGEIYFLLGMTIVASLVGAGISLFLLLPVFTSLGKLKEHAKRVAAKDFPSNLEVQGPVEFQQLGQTFNEMSHDLQVSFDSLEESEREKGLMIAQLSHDIKTPITSIQATVEGILDGIIKESEQAHYLATIGRQTERLNKLVEELNFLTLNTARNQVETTSKDSIFLDKLLIECMSEFQFLIEQERRDVHLQVIPESARIEGDYAKLSRILVNLVDNAFKYSAPGTKLEVVAKLEKDQLSISVTDEGQGIAPEDLENIFKRLYRVETSRNMKTGGHGLGLAIARELAHQLGGEITVSSQYGLGSTFTLVLNLSGSENKA | failed
8 | MSLKENKYDDKHFFEQYSQMPRSKEGLKAAGEWHELKKMLPDFNQKTVLDLGCGFGWHCIYAAEHGAKKVLGIDLSERMLTEAKRKTTSPVVCYEQKAIEDIAIEPDAYNVVLSSLALHYIASFDDICKKVYINLKSSGSFIFSVEHPVFTADGRQDWYTDETGNKLHWPVDRYFNESMRTSHFLGEDVQKYHRTVTTYIQTLLKNGFQINSVIEPEPAPELKDLPEMQDEYRRPMMLLISATKQEGHHHHHH | not failed
9 | MALTFYQYPKCGTCQKAKKWLDQHGIEVNSVHIVEQPPSKEELKQLYEQSGLELKKFFNTSGKKYRELGLKDKVKEASEDELLETLASDGMLIKRPILTDGDKVTVGFKEAEYEETWKK | failed
10 | RQLSRHTYAVRALTDIDDFNAQFNTDFDDEEVDTIGGLIMQTFGYLPKRGEEIILKNLQFKVTSADSRRLIQLRVTVPDEHLAEMNNVDEKSE | failed
11 | MAASDSRNNRADEPGFVVQPKGEHRVIIVWLHDKDERSSDSLQFVEQLNLKNVKWICPSLVFPDSFIKGVGGLGMGAAVALHFATSCALNHYTINPRVVVGISGWLSNSGSLKRSIESASHGAPARAASQSIFITHGICKSNRLLFQCDSVPHPCDCGEEAVLSLREAGFRDVKFTPFARFGPTAHENNRNVMVKSWLEEKLQLDVTIP | failed
12 | MQLYYLGPKGTFSYLACRQYFSENEATFQPKSNLFEVIKAVADDDTSIGVVPIENSIEGTINIVADALAQQDVFAHGEIRLDINFALYGNGTDSISDIKKVYSIAPAISQTTNYIHQHQFDYDYVDSTIQSLTKIENGVAAIAPLGSGEAYGFTPIDTHIEDYPHNVTRFLVIKNQQQFDQNATSLMFLITPMHDKPGLLASVLNTFALFNINLSWIESRPLKTQLGMYRFFVQADSAITTDIKKVIAILETLDFKVEMIGAFN | not failed
13 | LKPLSIIYNGKSGFHASDKEGVYEQIMTLFTRYDFEIQVFELNEKITFDELMEQVLLRHLNLNTSEYKGVIVAAGGDGTLNAVASRLVDTPIPMGILPLGTFNYVARVLNIPLDLLAAAEVIADGTIRSVHVATINDRIYLNNASLG | failed
14 | MLEGAKFNVLAVGNHHNNDNNYYAFTQEFYQKLNEGSNMSMESMQTSNAGGSVSMSVDNSSVGSSDALIGHPGLKPVRHYSLSVGQSVFRPGRVTHALNDDALAQALMDTRYPTEGLTNYDEWTIDLRKLNMGPAFAQGAFGKLYKGTYNGEDVAIKILERPENSPEKAQFMEQQFQQEVSMLANLKHPNIVRFIGACRKPMVWCIVTEYAKGGSVRQFLTRRQNRAVPLKLAVKQALDVARGMAYVHGRNFIHRDLKSDNLLISADKSIKIADFGVARIEVQTEGMTPETGTYRWMAPEMIQHRAYNQKVDVYSFGIVLWELITGLLPFQNMTAVQAAFAVVNRGVRPTVPNDCLPVLSDIMTRCWDANPEVRPCFVEVVKLLEAAETEIMTTARKARFRCCLSQPMTID | failed
15 | MNTLSIYRFKQWLKEGESPLALTLFRIAKSIRHFELPTPRLLNKVLYGLHKTLCTQWQAFTHLIFYVPAFKGRLESYGKRTLLYGGLPFFSGPLTMRIGNDCRISGQTTFSGRTNSDNPTLEVGDNVDICWQTTIAVGNKVIIGNNVRIAGQGFLCGYPGHPIDPTERALGKPDLDSQVGDIILEQDVWLGSRVSIIGNVTVGEGTIVASGSVVTKSLPPFVLAAGNPAKVIKKLDVNASNTIKEEIHYEA | failed
16 | MSNVRVLATDLAFPEGPVVMPDGSVVLVEIRAQQLTRVWPDGRKEVVAKVPGGPNGAALGPDGKMYICNNGGFGWFPSRGTMMPGAPAPHEYIGGSIQRVDLQSGEVETLFDKCGEHPLKGPNDLVFDKHGGLWFTDLGKRRARDMDVGAAYYIKPGMTEITEQVFGTLPLNGIGLSPDEATMYAAETPTGRLWAFDLSGPGEVKPRDVIYRGEKGKPICGLGGYQMFDSLAVEASGNVCVATLVSGCISVIAPDGTLVEQVPTGDRVTTNIAFGGPDLKTAYITLSGKGELIAMDWSRPGLPLNFLNK | failed

— a protein production outcome set (Wang et al. 2014)
